Experiment [1] has as its target T1, 可溶性ヒトRANKL蛋白質 (human, UniProt O14788 140-317, limits assumed, biotinylated with NHS-biotin at 20:1 molar ratio in the competition ELISA (sites not given); not biotinylated in the cell assays).
T1 construct: Soluble form; also called shRANKL; sRANKL
T1 sequence (looked up): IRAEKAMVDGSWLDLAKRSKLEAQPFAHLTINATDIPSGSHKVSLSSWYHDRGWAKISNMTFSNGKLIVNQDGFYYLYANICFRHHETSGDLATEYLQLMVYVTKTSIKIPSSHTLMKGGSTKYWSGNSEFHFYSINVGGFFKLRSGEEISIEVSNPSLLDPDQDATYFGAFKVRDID
The experiment in a line: competition ELISA: soluble competitor against biotinylated shRANKL binding to coated RANK-Fc.

Experiment [2] concerns the target T1, 可溶性ヒトRANKL蛋白質. As to the kind of experiment: cell-based or functional assay.
Experiment [3] deals with T1, 可溶性ヒトRANKL蛋白質. The experiment in a line: competition ELISA: inhibition of biotinylated shRANKL binding to coated RANK-Fc. In general terms: An ELISA detects its analyte on a solid surface through an enzyme-linked reagent.
The target in experiment [4] is T1, 可溶性ヒトRANKL蛋白質. As to the kind of experiment: not described in an example; paragraph 39 names optical biosensor analysis for the Kd.

B1: ヒトRANK−Fc融合蛋白質 (Fc fusion, human, UniProt Q9Y6Q6 30-212, looked up)
chain: IAPPCTSEKHYEHLGRCCNKCEPGKYMSSKCTTTSDSVCLPCGPDEYLDSWNEEDKCLLHKVCDTGKALVAVVAGNSTTPRRCACTAGYHWSQDCECCRRNTECAPGLGAQHPLQLNKDTVCKPCLAGYFSDAFSSTDKCRPWTNCTFLGKRVEHHGTEKSDAVCSSSLPARKPPNEPHVYLP
notes: Construct limits and Fc not described; also called RANK−Fc蛋白質; not shown: Fc part
For B1, the IC50 – broadly, the midpoint of a concentration-inhibition curve – in experiment [1] was ~6 nM. For the same molecule, in experiment [2], the “IC50, osteoclast formation from human monocytes with human soluble RANKL and M-CSF (multinucleated cells)” value was ~500 ng/mL; the “concentration of complete inhibition, osteoclast formation from mouse bone marrow cells stimulated by human sRANKL” value (“concentration of complete inhibition” for short) was determined as 10 µg/mL.

B2: OPG−Fc (Fc fusion, UniProt O00300 22-201, looked up)
chain: ETFPPKYLHYDEETSHQLLCDKCPPGTYLKQHCTAKWKTVCAPCPDHYYTDSWHTSDECLYCSPVCKELQYVKQECNRTHNRVCECKEGRYLEIEFCLKHRSCPPGFGVVQAGTPERNTVCKRCPDGFFSNETSSKAPCRKHTNCSVFGLLLTQKGNATHDNICSGNSESTQKCGIDVTL
notes: also called osteoprotegerin-Fc; not shown: Fc part; not described
For the molecule B2, the IC50 in experiment [3] is ~0.5 nM. Also, in experiment [2], the “IC50, osteoclast formation from mouse bone marrow cells stimulated by human sRANKL (TRAP-positive cells per well)” value was ~200 ng/mL and the “concentration of complete inhibition” value is 1 µg/mL.

B3: マウスモノクローナル抗体14F3 (antibody, V domains shown)
VH: EVQLVESGGDLVKPGGSLKLSCAASGFTFSRYGMSWVRQTPDKRLEWVATISSGGSYTYYPDSVKGRFTISRDNAKNTLYLQMSSLKSEDTAMYYCARLDGYNYRWYFDVWGTGTTVTVSS
VL: DIVMTQSHKFMSTSVGDRVSITCKASQDVSSAVAWYQQKPGQSPKLLIYSASYRYTGVPDRFTGSGSGTDFTFTISSVQAEDLAVYYCQQHYSSPRTFGGGTNLEIKR
notes: Murine IgG2a/kappa purified from hybridoma; also called RANKL mAb 14F3; mAb14F3
Take B3: the IC50 in experiment [3] was ~2 nM. The Kd (as a rule, the concentration at which binding is half-saturated) in experiment [4] is ~0.1 nM. Moreover, in experiment [2], the “IC50, osteoclast formation from human monocytes with human soluble RANKL and M-CSF (multinucleated cells)” value was ~4000 ng/mL; the “IC50, osteoclast formation from mouse bone marrow cells stimulated by human sRANKL (TRAP-positive cells per well)” value was ~200 ng/mL; the “concentration of complete inhibition” value turned out to be 1 µg/mL.

Source of the values: patent JP2005515752A (dated 2005).
